{"source": "patent US8343490B2", "about": "“Monoclonal antibody SC104 and derivative thereof specifically binding to a sialyltetraosyl carbohydrate as a potential anti-tumor therapeutic agent” (Cephalon Australia Pty Ltd, priority 2004, dated 2013)", "key": {"[1]": {"test_system": "C170 xenografts", "assay_type": "in vivo", "method": "Prevention model. The colorectal tumour cell line, C170 was maintained in serial passage in nude mice. For therapy the mice were sacrificed and the tumours excised. The tumour was finely minced and […] pieces were implanted, under anaesthetic, subcutaneously into 30 male mice which had been randomly allocated to 4 experimental groups.\nMice were explanted with 3 mm^3 pieces of C170 xenografts. Groups of mice were treated with 5-FU/leucovorin (12.5 mg/Kg) by intravenous infusion on days 1, 3, 5, 7 and 28. On the same days mice were also injected intraperitonealy with 0.2 mg of SC104 mab. Control mice received either SC104 alone or control mouse IgG antibody with 5-FU/leucovorin. Tumour size was measured by callipers and tumour cross sectional area calculated on days 7, 9, 12, 14 and 16. Animals were weighed to assess the toxicity of treatment. At the termination of the experiment tumours were weighed to assess anti-tumour efficacy."}, "[2]": {"test_system": "frozen normal tissue sections", "test": "Immunohistochemistry staining of frozen normal tissue sections", "assay_type": "binding, Human", "method": "• Immunohistochemistry staining of normal and tumour tissues. Human tissues were obtained from an Inveresk approved supplier. Each tissue used was snap frozen in liquid nitrogen and stored at approximately −70° C. (±10° C.). Cryostat sections were cut and placed onto super frost plus slides. All tissue samples were treated with an antigen marker appropriate for each tissue in order to confirm the preservation of antigens in that tissue. The markers used were keratin for epithelial bearing tissues, CD45 for all lymphoid tissues, and desmin for all cardiac and skeletal muscle. Each tissue was examined from three unrelated donors. The method of staining employed was an indirect, 2 or 3-stage method, using secondary and tertiary antibodies together with an avidin-biotin-peroxidase complex. Endogenous peroxidase activity was blocked using hydrogen peroxide. Endogenous biotin was blocked by treating all tissue sections with a sequence of avidin-biotin. When a tertiary antibody was used, all tissue sections were treated with normal swine serum, which inhibits the binding of tertiary antibodies to the tissues. Validation of the immunohistochemical staining method was determined by staining on positive control tissues, the absence on negative controls and the effect of fixation on staining of control tissues. SC104 was tested against 6 donors of colon tumour and one of heart at concentrations of […]. Tissues were fixed in either acetone or neutral buffered formalin. Two samples of colon tumour stained well enough for use as a positive control and there was no staining in heart. […] The lowest concentration of SC104 giving the maximum staining intensity was 1 μg/ml and this concentration was used for subsequent work. Results"}, "[3]": {"test_system": "SC104 / C14 antigen", "test": "ELISA for homophilic binding", "details": "FIG. 23", "method": "ELISA for homophilic binding. Flat flexi 96 well ELISA plates were coated with anti-mouse IgG Fc specific antibody or were coated with 3 μg/ml (100 μl/well) of C14 antigen in PBS and dried down overnight. Plates were washed 3 times with PBS prior to blocking with PBS/1% BSA for 1 hr at room temperature. SC104 antibody (0-100 μg/ml) was added on ice for 1 hr. After washing the plate 3 times in PBS/0.05% tween-20, biotinylated SC104 was added and incubated on ice for 30 minutes. Following a further 3 washes in PBS 0.05% tween-20 anti-mouse SA-HRP (1/1000; Dako, High Wycombe, UK) or goat anti-mouse Fc (1/1000: Dako, High Wycombe, UK) was added as appropriate and left on ice for 30 min. Plates were washed 5 times in PBS/0.05% tween-20 before adding 100 μl/well of TMB substrate and reading at 570 nm."}, "[4]": {"test_system": "colorectal tumour sections", "test": "Immunoperoxidase staining of frozen colorectal tumour sections (screening)", "assay_type": "binding", "design": "key: −: negative; +: minimal; 2+: strong; 3+: very strong", "method": "ELISA. Antibody responses in the serum of immunised mice were assayed by titration using a standard non-competitive ELISA procedure. 96-well tissue culture plates were coated with C170 cells at a cell density of 5×10^5 cells/ml (100 μl/well) in 10% foetal bovine serum in RPMI 1640. The plates were incubated overnight at 37° C., 5% CO2, 95% air. The cells were then washed twice in phosphate buffered saline (pH7.3, PBS) prior to being fixed with 0.5% glutaraldehyde in PBS (10 min, 25° C., 100 μl/well). Remaining non-specific binding sites were blocked by incubation for 1 hr with 1% bovine serum albumin (fraction V from Sigma Chemicals Ltd.) in PBS. The cells were washed three times with a washing solution consisting of 0.05% Tween 20 in phosphate buffered saline before assaying post-boost serum for binding to C170 cells using a non-competitive sandwich ELISA. The pre-immunisation serum was used as a negative control. • Immunohistochemistry. Binding of hybridoma supernatants to tumour tissues was determined by indirect immunoperoxidase staining of frozen colorectal tumour sections. […] The bound antibody was detected with rabbit anti-mouse Ig conjugated to peroxidase (Dako Ltd., Bucks., UK) and following extensive washing the slides were stained with 0.05% diaminobenzidine and 0.01% H2O2 in 0.05M Tris-HCl, pH7.6 and counterstained with haematoxylin. […]"}, "[5]": {"details": "Normal Tissues: Large intestine"}, "[6]": {"details": "Normal Tissues: Parotid salivary gland"}, "[7]": {"details": "Normal Tissues: Small intestine"}, "[8]": {"details": "Normal Tissues: Urinary Bladder"}}, "note": "Read-outs that look alike come from different tables or passages of the source.", "data": [{"molecule": "SC104: mouse IgG1 monoclonal antibody specific for a sialyltetraosyl carbohydrate, raised by immunisation with colorectal cancer cell lines (antibody, V domains shown) VH: DVQLQESGPDLVKPSQSLSLTCTVTGYSITSGYSWHWVRQFPGNKMEWMGHIHFSGRPTYNPSLSSRISITRDTSKNQFLLQLKFVTTEDTSTYFCARKGKGSDDGLNYWGQGISVTVSS VL: ENVLTQSPVIMSASPGEKVTMTCSASSSLSYIHWYQQKSRTSPKLWIYDTSNLASGVPGRFSGSGSGNSYSLTISSMEAEDVATYYCFQGSEYPLTFGGGTKLEMT", "values": [{"measurement": "survival of mice", "setting": "[1]; Log Rank, FIG. 26b", "result": "significant improvement of survival"}, {"measurement": "inhibition of tumour growth of freshly explanted tumours", "setting": "[1]; SC104 200 μg/dose ip, 5-FU/leucovorin at maximum tolerated dose, FIG. 26a", "result": 50, "unit": "%"}, {"measurement": "inhibition of tumour growth", "setting": "[1]; day 9", "result": 32, "unit": "%"}, {"measurement": "inhibition of tumour growth", "setting": "[1]; day 12", "result": 44, "unit": "%"}, {"measurement": "inhibition of tumour growth", "setting": "[1]; day 14", "result": 54, "unit": "%"}, {"measurement": "inhibition of tumour growth", "setting": "[1]; day 16", "result": 62, "unit": "%"}, {"measurement": "Comments on staining", "setting": "[2]; Normal Tissues: Brain", "result": "Small number of scattered glial cells"}, {"measurement": "Immunoreactivity with frozen tissue sections (binding)", "setting": "[2]; Normal Tissues: Brain", "result": "1/2"}, {"measurement": "Comments on staining", "setting": "[2]; Normal Tissues: Breast", "result": "Epithelial cells scattered moderate"}, {"measurement": "Immunoreactivity with frozen tissue sections (binding)", "setting": "[2]; Normal Tissues: Breast", "result": "2/3"}, {"measurement": "Comments on staining", "setting": "[2]; Normal Tissues: Fallopian tube", "result": "Epithelial cells scattered moderate"}, {"measurement": "Immunoreactivity with frozen tissue sections (binding)", "setting": "[2]; Normal Tissues: Fallopian tube", "result": "2/3"}, {"measurement": "Immunoreactivity with frozen tissue sections (binding)", "setting": "[2]; Normal Tissues: Heart", "result": 0}, {"measurement": "Immunoreactivity with frozen tissue sections (binding)", "setting": "[2]; Normal Tissues: Kidney", "result": 0}, {"measurement": "Comments on staining", "setting": "[2]; [5]", "result": "Epithelial cells, mucous, diffuse"}, {"measurement": "Immunoreactivity with frozen tissue sections (binding)", "setting": "[2]; [5]", "result": "3/3"}, {"measurement": "Comments on staining", "setting": "[2]; Normal Tissues: Lung", "result": "Alveolar lining cells one donor"}, {"measurement": "Immunoreactivity with frozen tissue sections (binding)", "setting": "[2]; Normal Tissues: Lung", "result": "2/3"}, {"measurement": "Comments on staining", "setting": "[2]; Normal Tissues: Ovary", "result": "Follicular cells scattered and mild"}, {"measurement": "Immunoreactivity with frozen tissue sections (binding)", "setting": "[2]; Normal Tissues: Ovary", "result": "3/3"}, {"measurement": "Comments on staining", "setting": "[2]; [6]", "result": "Moderate"}, {"measurement": "Immunoreactivity with frozen tissue sections (binding)", "setting": "[2]; [6]", "result": "3/3"}, {"measurement": "Immunoreactivity with frozen tissue sections (binding)", "setting": "[2]; Normal Tissues: Placenta", "result": 0}, {"measurement": "Comments on staining", "setting": "[2]; Normal Tissues: Prostate", "result": "Epithelial cells scatted and moderate"}, {"measurement": "Immunoreactivity with frozen tissue sections (binding)", "setting": "[2]; Normal Tissues: Prostate", "result": "3/3"}, {"measurement": "Comments on staining", "setting": "[2]; Normal Tissues: Skin", "result": "Diffuse minimal staining"}, {"measurement": "Immunoreactivity with frozen tissue sections (binding)", "setting": "[2]; Normal Tissues: Skin", "result": "2/3"}, {"measurement": "Comments on staining", "setting": "[2]; [7]", "result": "Mucus superficial, diffuse minimal"}, {"measurement": "Immunoreactivity with frozen tissue sections (binding)", "setting": "[2]; [7]", "result": "3/3"}, {"measurement": "Immunoreactivity with frozen tissue sections (binding)", "setting": "[2]; Normal Tissues: Spleen", "result": 0}, {"measurement": "Comments on staining", "setting": "[2]; Normal Tissues: Stomach", "result": "Mucus superficial, diffuse mild"}, {"measurement": "Immunoreactivity with frozen tissue sections (binding)", "setting": "[2]; Normal Tissues: Stomach", "result": "2/3"}, {"measurement": "Comments on staining", "setting": "[2]; Normal Tissues: Thymus", "result": "Epithelial cells, Hassall's corpuscle,"}, {"measurement": "Immunoreactivity with frozen tissue sections (binding)", "setting": "[2]; Normal Tissues: Thymus", "result": "3/3"}, {"measurement": "Comments on staining", "setting": "[2]; Normal Tissues: Tonsil", "result": "Keratinised epithelium, membrane,"}, {"measurement": "Immunoreactivity with frozen tissue sections (binding)", "setting": "[2]; Normal Tissues: Tonsil", "result": "3/3"}, {"measurement": "Comments on staining", "setting": "[2]; [8]", "result": "Epithelial cells transitional"}, {"measurement": "Immunoreactivity with frozen tissue sections (binding)", "setting": "[2]; [8]", "result": "2/2"}, {"measurement": "Comments on staining", "setting": "[2]; Normal Tissues: Uterine cervix", "result": "Epithelial cells, membrane, diffuse"}, {"measurement": "Immunoreactivity with frozen tissue sections (binding)", "setting": "[2]; Normal Tissues: Uterine cervix", "result": "3/3"}, {"measurement": "binding to plates coated with purified glycoprotein expressing SC104 haptens", "setting": "[3]; C14 antigen coated plates", "result": "bound stoichiometrically until 10 μg/ml and then bound exponentially beyond this concentration"}, {"measurement": "homophilic binding in the absence of antigen", "setting": "[3]; plate coated with unlabelled SC104, SC104 biotin detected", "result": "did not bind to itself"}, {"measurement": "Immunohistochemistry Colorectal Tumour", "setting": "[4]", "result": "3+"}]}]}
